For orientation: EC50 means the midpoint of the concentration-response curve. Lower therefore signals higher potency in that assay. One may read the Kd as a measure of binding affinity in units of concentration. The term koff denotes the rate constant with which the complex falls apart. Higher therefore signals a short-lived complex. What is called kon is the second-order rate constant of association. A higher kon goes with faster complex formation.

The text below walks through data of patent publication US20210087268A1 (YUHAN, published 2021).

Assay [1] concerns the target T1, human TIGIT expressed on CHO-S cells (CHO-hTIGIT) (human, UniProt Q495A1 22-244).
T1 construct: also called CHO-TIGIT cell line; TIGIT on the cell surface
T1 sequence: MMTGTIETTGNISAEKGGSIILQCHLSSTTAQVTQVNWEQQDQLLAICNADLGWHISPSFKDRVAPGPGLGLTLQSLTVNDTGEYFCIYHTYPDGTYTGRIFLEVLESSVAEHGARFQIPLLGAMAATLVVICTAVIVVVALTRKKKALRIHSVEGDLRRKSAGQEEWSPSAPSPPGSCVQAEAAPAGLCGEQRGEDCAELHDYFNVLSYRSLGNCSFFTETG
The experiment in a line: flow cytometry on CHO-TIGIT cells. As to the method:
In order to identify the binding ability of the three types of anti-TIGIT antibodies produced in Example 2 to TIGIT expressed on the cell surface, TIGIT-overexpressing CHO cell line (hereinafter referred to as CHO-TIGIT cell line) was treated with anti-TIGIT antibodies and then the anti-TIGIT antibodies bound to TIGIT on the cell surface were detected using a fluorescence flow cytometer.
Specifically, the CHO-TIGIT cell line was cultured in a 5% CO2 incubator at 37° C. for 48 to 72 hours using a chemical composition medium (CD FortiCHO Chemically Defined Medium+8 mM L-Glutamine+20 μg/mL Blasticidin+1% Anti-clumping agent). The cultured CHO-TIGIT cell line was harvested by centrifugation, diluted in FACS solution (PBS+5% FBS), and dispensed at a density of 1×10⁵ cells/well in a 96-well round bottom plate (Corning). Then, in order to completely remove the chemical composition medium remaining on the cell surface, the FACS solution was added, centrifuged at 2,000 rpm for 3 minutes and washed three times to remove the supernatant. The washed CHO-TIGIT cell line was re-suspended by addition of 100 μL of FACS solution. The anti-TIGIT antibody of each concentration, which was diluted to 2 times the final concentration using the FACS solution, was added at 100 μL to a 96-well round bottom plate in which the CHO-TIGIT cell line was dispensed, and incubated at 4° C. for 1 hour. Then, in order to remove the anti-TIGIT antibody remaining in the supernatant, without binding to the TIGIT on the cell surface, the FACS solution was added to each well, centrifuged at 2,000 rpm for 3 minutes, and washed three times to remove the supernatant. Then, in order to detect anti-TIGIT antibody bound to TIGIT on the cell surface, a goat anti-human IgG (H+L) cross-adsorbed secondary antibody (Invitrogen) was diluted to 10 μg/mL using a FACS solution, and 100 μL of the diluted antibody was incubated at 4° C. for 1 hour. After washing three times, each sample was transferred to a 12×75 mm tube (BD Biosciences) and analyzed using a fluorescence flow cytometer.

Assay [2] deals with T2, TIGIT expressed on cells (TIGIT-expressing effector cell line of the Promega kit); TIGIT-overexpressing NK92 … (UniProt Q495A1 22-244, limits assumed).
T2 sequence (looked up): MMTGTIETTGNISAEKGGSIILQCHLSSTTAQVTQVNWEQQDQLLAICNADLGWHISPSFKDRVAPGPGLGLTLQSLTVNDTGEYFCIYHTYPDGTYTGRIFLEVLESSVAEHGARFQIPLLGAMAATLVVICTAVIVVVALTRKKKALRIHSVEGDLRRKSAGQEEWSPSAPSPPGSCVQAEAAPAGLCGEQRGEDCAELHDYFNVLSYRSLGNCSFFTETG
The experiment in a line: cell-based or functional assay.

The target of assay [3] is T3, human TIGIT-Fc (rhTIGIT-Fc, R&D Systems) (human, UniProt Q495A1 22-141).
T3 construct: Bought protein; also called human TIGIT (rhTIGIT-Fc); not shown: Fc part of the bought fusion protein
T3 sequence: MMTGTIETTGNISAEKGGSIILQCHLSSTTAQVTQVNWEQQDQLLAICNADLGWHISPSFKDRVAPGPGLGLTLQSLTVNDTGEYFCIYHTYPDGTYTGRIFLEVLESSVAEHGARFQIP
Kind of assay: SPR (BIAcore T200), antibody immobilised on CM5 chip, TIGIT-Fc flowed. An excerpt:
(§1) In order to measure binding abilities of the three types of anti-TIGIT antibodies produced in Example 2 to human TIGIT (rhTIGIT-Fc) and mouse TIGIT (rmTIGIT-Fc), surface plasmon resonance (SPR) using a BIAcore T200 (GE Healthcare) was used. The SPR method is based on the principle that the refractive index of light passing through a sensor chip changes according to the state of a substance coated on the sensor chip. When an antigen or antibody was made to flow into the chip coated with the antigen or antibody, the refractive index is changed due to binding therebetween and the affinity (KD) value is calculated from the measured value.
(§2) An anti-TIGIT antibody was immobilized on a Series S CM5 sensor chip (GE Healthcare) to a level of 500 RU using a 10 mM acetate solution (pH 4.0) and an amine coupling kit (GE Healthcare). […] The association of the TIGIT-Fc proteins was measured at a rate of 30 μL/min for 600 seconds, the dissociation was measured for 2,000 seconds, and the regeneration was carried out in a 10 mM glycine solution (pH 1.5) at a rate of 100 μL/min for 25 seconds.

For assay [4], the target named is T4, mouse TIGIT-Fc (rmTIGIT-Fc, R&D Systems) (mouse, UniProt P86176 29-148, limits assumed).
T4 construct: Bought protein; also called mouse TIGIT (rmTIGIT-Fc); not shown: Fc part of the bought fusion protein
T4 sequence (looked up): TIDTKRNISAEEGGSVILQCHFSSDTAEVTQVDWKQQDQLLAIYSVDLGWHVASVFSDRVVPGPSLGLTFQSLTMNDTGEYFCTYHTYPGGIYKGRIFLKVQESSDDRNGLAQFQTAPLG
The assay is described as above.
Text: as §1, §2

B1: S64-39-IgG1 (antibody, V domains shown)
VH: EVQLLESGGGLVQPGGSLRLSCAASGFTFSNYAMSWVRQAPGKGLEWVSGISPSGSSIYYADSVQGRFTISRDNSKNTLYLQMNSLRAEDTAVYYCAKAIRTCSLSHCYYYYGMDVWGQGTLVTVSS
VL: QSVLTQPPSASGTPGQRVTISCSSSSSNIGSNAVNWYQQLPGTAPKLLIYYDNQRPSGVPDRFSGSKSGTSASLAISGLRSEDEADYYCATWDYSLSGYVFGGGTKLTVL
notes: also called 564-39-IgG1 [sic]; antibody based on the S64-39 clones
Turning to B1, in assay [1], the EC50 was 0.069 µg/mL. For the same molecule, the “binding inhibition (EC50), TIGIT/CD155 blockade assay, luminescence fold response” value (“binding inhibition … luminescence fold response” below) in assay [2] was determined as 581 nM. In assay [3], this molecule came in with a Kd of 1.31 nM, a koff of 4.41e-05 s⁻¹ and an on-rate (kon) of 33700 M⁻¹ s⁻¹. In assay [4], this molecule registered a Kd of 3.2 nM, a koff of 0.000201 s⁻¹ and a kon of 62800 M⁻¹ s⁻¹.

B2: S64-39-IgG4 (antibody, V domains shown)
VH: EVQLLESGGGLVQPGGSLRLSCAASGFTFSNYAMSWVRQAPGKGLEWVSGISPSGSSIYYADSVQGRFTISRDNSKNTLYLQMNSLRAEDTAVYYCAKAIRTCSLSHCYYYYGMDVWGQGTLVTVSS
VL: QSVLTQPPSASGTPGQRVTISCSSSSSNIGSNAVNWYQQLPGTAPKLLIYYDNQRPSGVPDRFSGSKSGTSASLAISGLRSEDEADYYCATWDYSLSGYVFGGGTKLTVL
notes: also called 564-39-IgG4 [sic]
Regarding B2, the EC50 in assay [1] was 0.0808 µg/mL. The “binding inhibition … luminescence fold response” value in assay [2] turned out to be 1080 nM. Moreover, in assay [3], the equilibrium dissociation constant (Kd) is 1.15 nM, the koff was 3.23e-05 s⁻¹ and the kon was determined as 28200 M⁻¹ s⁻¹. In assay [4], the Kd came out at 3.12 nM, the koff amounted to 0.000194 s⁻¹ and the kon turned out to be 62200 M⁻¹ s⁻¹.

B3: F04-10-IgG1 (antibody, V domains shown)
VH: EVQLLESGGGLVQPGGSLRLSCAASGFTFSSYYMSWVRQAPGKGLEWVSSIGSGSPSSTYYADSVKGRFTISRDNSKNTLYLQMNSLRAEDTAVYYCARSSYSGGNGYYYYAYAFDYWGQGTLVTVSS
VL: EIVLTQSPGTLSLSPGERATLSCRASQSVSSSYLAWYQQKPGQAPRLLIYGASSRATGIPDRFSGSGSGTDFTLTISRLEPEDFAVYYCQQGYHRYATFGQGTKVEIK
notes: also called antibody based on the F04-10 clones
As to B3, a half-maximal effect in assay [1] (EC50) was put at 0.0164 µg/mL. Further, the “binding inhibition … luminescence fold response” value in assay [2] worked out at 23.9 nM. Further, in assay [3], the affinity, expressed as Kd, was 0.533 nM; the koff came to 3.76e-05 s⁻¹; the kon came to 70500 M⁻¹ s⁻¹. Besides, in assay [4], the Kd was 0.245 nM, the off-rate (koff) was 2.93e-05 s⁻¹ and the kon is 120000 M⁻¹ s⁻¹.

B4: 10A7 antibody (antibody, V domains shown)
VH: EVQLVESGGGLTQPGKSLKLSCEASGFTFSSFTMHWVRQSPGKGLEWVAFIRSGSGIVFYADAVRGRFTISRDNAKNLLFLQMNDLKSEDTAMYYCARRPLGHNTFDSWGQGTLVTVSS
VL: DIVMTQSPSSLAVSPGEKVTMTCKSSQSLYYSGVKENLLAWYQQKPGQSPKLLIYYASIRFTGVPDRFTGSGSGTDYTLTITSVQAEDMGQYFCQQGINNPLTFGDGTKLEIKR
In assay [1], B4 came in with an EC50 of 0.0165 µg/mL. In assay [3], binding was characterised by a dissociation constant (Kd) of 1.19 nM, the koff stood at 0.000193 s⁻¹ and the kon is 162000 M⁻¹ s⁻¹. In assay [4], this molecule yielded a Kd of 0.182 nM, a koff of 8.91e-05 s⁻¹ and a kon of 490000 M⁻¹ s⁻¹.
